Data published in paper PMC4661877, “Enhancement of Chaperone Activity of Plant-Specific Thioredoxin through γ-Ray Mediated Conformational Change” (International Journal of Molecular Sciences, 2015).

Molecular target: the molecule itself
Assay: SEC; Superdex 200 10/300 GL, FPLC, 4 °C, 50 mM HEPES pH 8.0, 100 mM NaCl, 0.5 mL/min; size against standard proteins

B1: Arabidopsis thaliana tetratricopeptide domain-containing thioredoxin (AtTDX), non-irradiated (enzyme, UniProt Q8VWG7 1-380, looked up)
chain: MVDAIQVAELRRFVEQLKLNPSILHDPSLVFFKEYLRSLGAQVPKIEKTERDYEDKAETKPSFSPKHDDDDDDIMESDVELDNSDVVEPDNEPPQPMGDPTAEVTDENRDDAQSEKSKAMEAISDGRFDEAIEHLTKAVMLNPTSAILYATRASVFLKVKKPNAAIRDANVALQFNSDSAKGYKSRGMAKAMLGQWEEAAADLHVASKLDYDEEIGTMLKKVEPNAKRIEEHRRKYQRLRKEKELQRAERERRKQQEAQEREAQAALNDGEVISIHSTSELEAKTKAAKKASRLLILYFTATWCGPCRYMSPLYSNLATQHSRVVFLKVDIDKANDVAASWNISSVPTFCFIRDGKEVDKVVGADKGSLEQKIAQHSSSK
notes: AtTDX, Arabidopsis thaliana tetratricopeptide domain-containing thioredoxin; 380 amino acids, 42 kDa; three TPR domains at the amino terminus and a thioredoxin domain at the carboxyl terminus; Mixture of LMW (mainly tetrameric) and HMW forms; also called non-irradiated AtTDX; 0 kGy
Q: With B1 as the protein, how does the “stoichiometry N” value read?
A: 4
